# Measurements: patent US20260274985A1 (MYTHIC THERAPEUTICS, published 2026)
# T1: Human TROP2 Protein, His Tag (Acro Biosystems) (human, UniProt P09758 27-274)
# T1 construct: Bought antigen used at 50 nM in the Octet screen; also called TACSTD2; not shown: His tag
# T1 sequence (looked up): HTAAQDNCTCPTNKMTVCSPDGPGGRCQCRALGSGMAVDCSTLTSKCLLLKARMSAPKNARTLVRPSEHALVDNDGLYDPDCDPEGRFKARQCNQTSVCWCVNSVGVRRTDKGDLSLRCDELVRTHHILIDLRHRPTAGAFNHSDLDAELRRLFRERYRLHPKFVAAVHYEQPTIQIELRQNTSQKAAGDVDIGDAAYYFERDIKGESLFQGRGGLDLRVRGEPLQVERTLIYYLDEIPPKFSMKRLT
# Molecular target: T1, Human TROP2 Protein, His Tag (Acro …)
# Test: BLI (Octet) [1/2]
# Experimental: After allowing for four days of protein expression, cell culture supernatants were collected, quantified by SDS-PAGE analysis (DNS), and the pH dependence of the variant was evaluated using biolayer interferometry (BLI) on an Octet RED 96e instrument. Briefly, cell culture supernatants were diluted based on qualitative expression level of the variant determined by visual examination of SDS-PAGE gels, 5 μL of cell culture supernatant was diluted into 195 μL of 1×PBST, pH 7.4 for high expressors, 25 μL of cell culture supernatant was diluted into 175 μL of 1×PBST, pH 7.4 for medium expressors and 100 μL of cell culture supernatant was diluted into 100 μL of 1×PBST, pH 7.4 for low expressors for loading onto the sensor tips. The resulting diluted supernatants were then captured on an anti-human Fc sensor (Forte Bio). A baseline was established using 1×PBST (50 mM Potassium Phosphate Buffer+150 mM NaCl+0.05% Tween 20) pH 7.4, and the sensor was associated with 50 nM of TROP2 (Human TROP2 Protein, His Tag, Acro Biosystems) in 1×PBST pH 7.4 for 120 sec to generate an association curve. In the dissociation phase, the antibody-antigen complex on the sensor was exposed to 1×PBST pH 7.4 or pH 5.4, for 300 sec. Association and dissociation phase curves were examined for the starting ABPC antibody (with no substitutions) and each corresponding antibody variant at pH 5.4 and pH 7.4 to inform on two criteria: a) enhanced dissociation (i.e., higher koff values) at pH 5.4 due to histidine or alanine substitution compared to the starting ABPC, (with no substitutions), and b) reduced dissociation at pH 7.4 (i.e., lower koff values) compared to pH 5.4 in the antibody variant itself and with the starting ABPC (with no substitutions). […] It was also noted that while some mutations obliterated TROP2 binding, others were tolerated with little or n change in TROP2 binding kinetics.
row,Binder,binding result
1,"MYT11711 (antibody, V domains shown, hu7E6SVG variant, His at HCV position 32 (H1 07); screened as IgG in Expi293 supernatant) VH: QVQLQESGPGLVKPSETLSLTCTVSGGSISSHGVHWIRQPPGKGLEWIGVIWTSGVTDYNSALMGRVTISVDTSKNQFSLKLSSVTAADTAVYYCARDGDYDRYTMDYWGQGTLVTVSS VL: DIVMTQSPDSLAVSLGERATINCRASKSVSTSGYSYMHWYQQKPGQPPKLLIYLASNLESGVPDRFSGSGSGTDFTLTISSLQAEDVAVYYCQHSRELPYTFGQGTKLEIK",binds
2,"MYT11712 (antibody, V domains shown, hu7E6SVG variant, His at HCV position 33 (H1 08); screened as IgG in Expi293 supernatant) VH: QVQLQESGPGLVKPSETLSLTCTVSGGSISSYHVHWIRQPPGKGLEWIGVIWTSGVTDYNSALMGRVTISVDTSKNQFSLKLSSVTAADTAVYYCARDGDYDRYTMDYWGQGTLVTVSS VL: DIVMTQSPDSLAVSLGERATINCRASKSVSTSGYSYMHWYQQKPGQPPKLLIYLASNLESGVPDRFSGSGSGTDFTLTISSLQAEDVAVYYCQHSRELPYTFGQGTKLEIK",binds
3,"MYT11713 (antibody, V domains shown, hu7E6SVG variant, His at HCV position 34 (H1 09); screened as IgG in Expi293 supernatant) VH: QVQLQESGPGLVKPSETLSLTCTVSGGSISSYGHHWIRQPPGKGLEWIGVIWTSGVTDYNSALMGRVTISVDTSKNQFSLKLSSVTAADTAVYYCARDGDYDRYTMDYWGQGTLVTVSS VL: DIVMTQSPDSLAVSLGERATINCRASKSVSTSGYSYMHWYQQKPGQPPKLLIYLASNLESGVPDRFSGSGSGTDFTLTISSLQAEDVAVYYCQHSRELPYTFGQGTKLEIK",binds
4,"MYT11714 (antibody, V domains shown, hu7E6SVG variant, Ala in place of His at HCV position 35 (H1 10); screened as IgG in Expi293 supernatant) VH: QVQLQESGPGLVKPSETLSLTCTVSGGSISSYGVAWIRQPPGKGLEWIGVIWTSGVTDYNSALMGRVTISVDTSKNQFSLKLSSVTAADTAVYYCARDGDYDRYTMDYWGQGTLVTVSS VL: DIVMTQSPDSLAVSLGERATINCRASKSVSTSGYSYMHWYQQKPGQPPKLLIYLASNLESGVPDRFSGSGSGTDFTLTISSLQAEDVAVYYCQHSRELPYTFGQGTKLEIK",binds
5,"MYT11715 (antibody, V domains shown, hu7E6SVG variant, His at HCV position 50 (H2 01); screened as IgG in Expi293 supernatant) VH: QVQLQESGPGLVKPSETLSLTCTVSGGSISSYGVHWIRQPPGKGLEWIGHIWTSGVTDYNSALMGRVTISVDTSKNQFSLKLSSVTAADTAVYYCARDGDYDRYTMDYWGQGTLVTVSS VL: DIVMTQSPDSLAVSLGERATINCRASKSVSTSGYSYMHWYQQKPGQPPKLLIYLASNLESGVPDRFSGSGSGTDFTLTISSLQAEDVAVYYCQHSRELPYTFGQGTKLEIK",no binding (tested: 50 nM)
6,"MYT11716 (antibody, V domains shown, hu7E6SVG variant, His at HCV position 51 (H2 02); screened as IgG in Expi293 supernatant) VH: QVQLQESGPGLVKPSETLSLTCTVSGGSISSYGVHWIRQPPGKGLEWIGVHWTSGVTDYNSALMGRVTISVDTSKNQFSLKLSSVTAADTAVYYCARDGDYDRYTMDYWGQGTLVTVSS VL: DIVMTQSPDSLAVSLGERATINCRASKSVSTSGYSYMHWYQQKPGQPPKLLIYLASNLESGVPDRFSGSGSGTDFTLTISSLQAEDVAVYYCQHSRELPYTFGQGTKLEIK",binds
7,"MYT11718 (antibody, V domains shown, hu7E6SVG variant, His at HCV position 53 (H2 04); screened as IgG in Expi293 supernatant) VH: QVQLQESGPGLVKPSETLSLTCTVSGGSISSYGVHWIRQPPGKGLEWIGVIWHSGVTDYNSALMGRVTISVDTSKNQFSLKLSSVTAADTAVYYCARDGDYDRYTMDYWGQGTLVTVSS VL: DIVMTQSPDSLAVSLGERATINCRASKSVSTSGYSYMHWYQQKPGQPPKLLIYLASNLESGVPDRFSGSGSGTDFTLTISSLQAEDVAVYYCQHSRELPYTFGQGTKLEIK",binds
8,"MYT11719 (antibody, V domains shown, hu7E6SVG variant, His at HCV position 54 (H2 05); screened as IgG in Expi293 supernatant) VH: QVQLQESGPGLVKPSETLSLTCTVSGGSISSYGVHWIRQPPGKGLEWIGVIWTHGVTDYNSALMGRVTISVDTSKNQFSLKLSSVTAADTAVYYCARDGDYDRYTMDYWGQGTLVTVSS VL: DIVMTQSPDSLAVSLGERATINCRASKSVSTSGYSYMHWYQQKPGQPPKLLIYLASNLESGVPDRFSGSGSGTDFTLTISSLQAEDVAVYYCQHSRELPYTFGQGTKLEIK",binds
